# Experimental data taken from US8299023 (Hoffmann-La Roche, dated 2012).
# Numbered stars: 1 amine (or outer) side, 2 acyl side, 3 side chain; on linkers, the order of the positions; unused ones are H or OH. Square brackets hold non-standard residues; d marks the D form. Primed or numbered codes have the meaning given here. HomPqa = 3-hydroxy-2-(4-oxo-6-piperazin-1-yl-4H-quinazolin-3-yl)-propionic acid, O=C(C(CO[*:3])n1cnc2ccc(N3CCN([*:1])CC3)cc2c1=O)[*:2]; Pdp = (6-oxo-2-piperazin-1-yl-1,6-dihydropurin-7-yl)-acetic acid, O=C(Cn1cnc2nc(N3CCN([*:1])CC3)[nH]c(=O)c21)[*:2]; Dqa = (6-[1,4]diazepan-1-yl-4-oxo-4H-quinazolin-3-yl)-acetic acid, O=C(Cn1cnc2ccc(N3CCCN([*:1])CC3)cc2c1=O)[*:2]; Pipa = (1-oxo-7-piperazin-1-yl-1H-isoquinolin-2-yl)-acetic acid, O=C(Cn1ccc2ccc(N3CCN([*:1])CC3)cc2c1=O)[*:2]; Appa = (6-Amino-2-piperazin-1-yl-9H-purin-8-yl)-acetic acid, Nc1nc(N2CCN([*:1])CC2)nc2[nH]c(CC(=O)[*:2])nc12; Cip = (5-Piperazin-1-yl-indole-1-yl)-acetic acid, O=C(Cn1ccc2cc(N3CCN([*:1])CC3)ccc21)[*:2]; Cba′ = (4-Aminomethyl-biphenyl-3-yl)-acetic acid, O=C(Cc1cc(-c2ccccc2)ccc1CN[*:1])[*:2]; Bqa = ((1R,4S)-6-2-Aza-bicyclo[2.2.1]hept-5-yl-4-oxo-4H-quinazolin)-acetic acid; Ppa = (2-piperazin-1-yl-purin-7-yl)-acetic acid; NMeR = CN[C@@H](CCCNC(=N)N)C(=O)O
# T1: Y5R
# T1 sequence (Q15761 whole entry, species assumed, looked up): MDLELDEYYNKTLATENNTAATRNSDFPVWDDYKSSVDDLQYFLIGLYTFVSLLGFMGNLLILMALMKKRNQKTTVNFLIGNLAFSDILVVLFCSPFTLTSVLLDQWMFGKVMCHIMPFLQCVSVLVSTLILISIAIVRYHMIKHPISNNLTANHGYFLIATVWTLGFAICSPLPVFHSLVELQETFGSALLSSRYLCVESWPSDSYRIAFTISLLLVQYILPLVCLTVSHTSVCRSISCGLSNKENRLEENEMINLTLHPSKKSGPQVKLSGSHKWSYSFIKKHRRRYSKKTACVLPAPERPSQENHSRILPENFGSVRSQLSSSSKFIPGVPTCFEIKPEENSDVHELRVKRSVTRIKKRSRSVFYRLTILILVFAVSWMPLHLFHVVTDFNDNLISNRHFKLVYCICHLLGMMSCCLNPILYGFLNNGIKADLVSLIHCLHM
# T2: human NPY2 receptor (human, UniProt P49146 1-381)
# T2 sequence (looked up): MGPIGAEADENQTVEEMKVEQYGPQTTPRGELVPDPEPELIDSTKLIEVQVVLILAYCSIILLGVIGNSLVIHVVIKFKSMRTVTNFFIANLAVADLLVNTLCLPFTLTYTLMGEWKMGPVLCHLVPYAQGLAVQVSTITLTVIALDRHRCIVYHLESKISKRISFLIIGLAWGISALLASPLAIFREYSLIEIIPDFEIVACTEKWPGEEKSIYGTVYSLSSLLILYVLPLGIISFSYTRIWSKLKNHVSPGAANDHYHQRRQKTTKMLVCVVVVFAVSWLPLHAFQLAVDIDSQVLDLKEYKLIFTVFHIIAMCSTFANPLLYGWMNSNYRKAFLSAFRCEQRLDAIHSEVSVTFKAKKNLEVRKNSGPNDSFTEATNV
# B1: Ac-Ile-Lys-Dqa-Arg-His-Tyr-Leu-Asn-Trp-Val-Thr-Arg-Gln-(NMe)Arg-Tyr-NH2 (peptide)
# peptide: Ac-IK[Dqa]RHYLNWVTRQ[NMeR]Y-NH2
# B2: Ac-Ile-Lys-Bqa-Arg-His-Tyr-Leu-Asn-Trp-Val-Thr-Arg-Gln-(NMe)Arg-Tyr-NH2 (peptide)
# peptide: Ac-IK[Bqa]RHYLNWVTRQ[NMeR]Y-NH2
# B3: Ac-Ile-Lys-Cba-Arg-His-Tyr-Leu-Asn-Trp-Val-Thr-Arg-Gln-(NMe)Arg-Tyr-NH2 (peptide)
# peptide: Ac-IK[Cba′]RHYLNWVTRQ[NMeR]Y-NH2
# B4: Ac-Ile-Lys-Appa-Arg-His-Tyr-Leu-Asn-Trp-Val-Thr-Arg-Gln-(NMe)Arg-Tyr-NH2 (peptide)
# peptide: Ac-IK[Appa]RHYLNWVTRQ[NMeR]Y-NH2
# B5: Ac-Ile-Lys-Pdp-Arg-His-Tyr-Leu-Asn-Trp-Val-Thr-Arg-Gln-(NMe)Arg-Tyr-NH2 (peptide)
# peptide: Ac-IK[Pdp]RHYLNWVTRQ[NMeR]Y-NH2
# SMILES: CC[C@H](C)[C@H](NC(C)=O)C(=O)N[C@@H](CCCCN)C(=O)N1CCN(c2nc3ncn(CC(=O)N[C@@H](CCCNC(=N)N)C(=O)N[C@@H](Cc4c[nH]cn4)C(=O)N[C@@H](Cc4ccc(O)cc4)C(=O)N[C@@H](CC(C)C)C(=O)N[C@@H](CC(N)=O)C(=O)N[C@@H](Cc4c[nH]c5ccccc45)C(=O)N[C@H](C(=O)N[C@H](C(=O)N[C@@H](CCCNC(=N)N)C(=O)N[C@@H](CCC(N)=O)C(=O)N(C)[C@@H](CCCNC(=N)N)C(=O)N[C@@H](Cc4ccc(O)cc4)C(N)=O)[C@@H](C)O)C(C)C)c3c(=O)[nH]2)CC1
# B6: Ac-Ile-Lys-Ppa-Arg-His-Tyr-Leu-Asn-Trp-Val-Thr-Arg-Gln-(NMe)Arg-Tyr-NH2 (peptide)
# peptide: Ac-IK[Ppa]RHYLNWVTRQ[NMeR]Y-NH2
# B7: Ac-Ile-Lys-Pipa-Arg-His-Tyr-Leu-Asn-Trp-Val-Thr-Arg-Gln-(NMe)Arg-Tyr-NH2 (peptide)
# peptide: Ac-IK[Pipa]RHYLNWVTRQ[NMeR]Y-NH2
# SMILES: CC[C@H](C)[C@H](NC(C)=O)C(=O)N[C@@H](CCCCN)C(=O)N1CCN(c2ccc3ccn(CC(=O)N[C@@H](CCCNC(=N)N)C(=O)N[C@@H](Cc4c[nH]cn4)C(=O)N[C@@H](Cc4ccc(O)cc4)C(=O)N[C@@H](CC(C)C)C(=O)N[C@@H](CC(N)=O)C(=O)N[C@@H](Cc4c[nH]c5ccccc45)C(=O)N[C@H](C(=O)N[C@H](C(=O)N[C@@H](CCCNC(=N)N)C(=O)N[C@@H](CCC(N)=O)C(=O)N(C)[C@@H](CCCNC(=N)N)C(=O)N[C@@H](Cc4ccc(O)cc4)C(N)=O)[C@@H](C)O)C(C)C)c(=O)c3c2)CC1
# B8: Ac-Ile-Lys-HomPqa-Arg-His-Tyr-Leu-Asn-Trp-Val-Thr-Arg-Gln-(NMe)Arg-Tyr-NH2 (peptide)
# peptide: Ac-IK[HomPqa]RHYLNWVTRQ[NMeR]Y-NH2
# B9: Ac-Ile-Lys-Cip-Arg-His-Tyr-Leu-Asn-Trp-Val-Thr-Arg-Gln-(NMe)Arg-Tyr-NH2 (peptide)
# peptide: Ac-IK[Cip]RHYLNWVTRQ[NMeR]Y-NH2
# SMILES: CC[C@H](C)[C@H](NC(C)=O)C(=O)N[C@@H](CCCCN)C(=O)N1CCN(c2ccc3c(ccn3CC(=O)N[C@@H](CCCNC(=N)N)C(=O)N[C@@H](Cc3c[nH]cn3)C(=O)N[C@@H](Cc3ccc(O)cc3)C(=O)N[C@@H](CC(C)C)C(=O)N[C@@H](CC(N)=O)C(=O)N[C@@H](Cc3c[nH]c4ccccc34)C(=O)N[C@H](C(=O)N[C@H](C(=O)N[C@@H](CCCNC(=N)N)C(=O)N[C@@H](CCC(N)=O)C(=O)N(C)[C@@H](CCCNC(=N)N)C(=O)N[C@@H](Cc3ccc(O)cc3)C(N)=O)[C@@H](C)O)C(C)C)c2)CC1
# Target: Y1R
# Assay: cell-based or functional assay
# Sequence of Y1R (P25929 whole entry): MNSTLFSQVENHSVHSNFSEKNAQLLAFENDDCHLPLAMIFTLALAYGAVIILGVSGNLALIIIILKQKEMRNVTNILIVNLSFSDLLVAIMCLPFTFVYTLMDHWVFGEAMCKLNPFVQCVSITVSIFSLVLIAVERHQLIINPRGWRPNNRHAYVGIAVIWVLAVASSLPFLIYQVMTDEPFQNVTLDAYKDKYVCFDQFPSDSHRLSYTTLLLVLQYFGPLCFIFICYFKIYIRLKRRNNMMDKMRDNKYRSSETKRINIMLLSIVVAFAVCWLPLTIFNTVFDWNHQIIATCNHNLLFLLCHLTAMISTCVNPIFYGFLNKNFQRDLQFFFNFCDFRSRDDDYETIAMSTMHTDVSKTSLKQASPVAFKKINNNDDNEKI
row,Binder,Y1R EC50 (nM) FLIPR
1,B1,> 9000 nM
2,B2,> 5000 nM
3,B3,> 30000 nM
4,B4,> 5000 nM
5,B5,> 9000 nM
6,B6,> 5000 nM
7,B7,> 5000 nM
8,B8,> 9000 nM
9,B9,> 30000 nM

# Target: T1, Y5R
# Assay: cell-based or functional assay
row,Binder,Y5R EC50 (nM) FLIPR
1,B1,6030 nM
2,B2,2870 nM
3,B3,> 30000 nM
4,B4,3300 nM
5,B5,> 9000 nM
6,B6,1100 nM
7,B7,2340 nM
8,B8,4940 nM
9,B9,10700 nM

# Target: Y4R
# Assay: cell-based or functional assay
row,Binder,Y4R EC50 (nM) FLIPR
1,B1,> 9000 nM
2,B2,> 5000 nM
3,B3,> 30000 nM
4,B4,> 5000 nM
5,B5,> 9000 nM
6,B6,> 5000 nM
7,B7,> 5000 nM
8,B8,2790 nM
9,B9,> 30000 nM

# Target: T2, human NPY2 receptor
# Assay: cell-based or functional assay
Binder,"Y2R EC50 (nM) FLIRR (Ca flux, FLIPR)",Y2R EC50 (nM) cAMP
B1,0.25 nM,0.35 nM
B2,0.072 nM,0.17 nM
B3,0.51 nM,1.97 nM
B4,0.156 nM,0.18 nM
B5,0.037 nM,0.24 nM
B6,0.45 nM,0.12 nM
B7,0.045 nM,0.18 nM
B8,0.6 nM,4.35 nM
B9,0.14 nM,0.36 nM
